# IntAct's records for PubMed 25873389
# B1: Protein deacetylase HDAC6 (Homo sapiens), Q9UBN7 (parent)
# chain: MTSTGQDSTTTRQRRSRQNPQSPPQDSSVTSKRNIKKGAVPRSIPNLAEVKKKGKMKKLGQAMEEDLIVGLQGMDLNLEAEALAGTGLVLDEQLNEFHCLWDDSFPEGPERLHAIKEQLIQEGLLDRCVSFQARFAEKEELMLVHSLEYIDLMETTQYMNEGELRVLADTYDSVYLHPNSYSCACLASGSVLRLVDAVLGAEIRNGMAIIRPPGHHAQHSLMDGYCMFNHVAVAARYAQQKHRIRRVLIVDWDVHHGQGTQFTFDQDPSVLYFSIHRYEQGRFWPHLKASNWSTTGFGQGQGYTINVPWNQVGMRDADYIAAFLHVLLPVALEFQPQLVLVAAGFDALQGDPKGEMAATPAGFAQLTHLLMGLAGGKLILSLEGGYNLRALAEGVSASLHTLLGDPCPMLESPGAPCRSAQASVSCALEALEPFWEVLVRSTETVERDNMEEDNVEESEEEGPWEPPVLPILTWPVLQSRTGLVYDQNMMNHCNLWDSHHPEVPQRILRIMCRLEELGLAGRCLTLTPRPATEAELLTCHSAEYVGHLRATEKMKTRELHRESSNFDSIYICPSTFACAQLATGAACRLVEAVLSGEVLNGAAVVRPPGHHAEQDAACGFCFFNSVAVAARHAQTISGHALRILIVDWDVHHGNGTQHMFEDDPSVLYVSLHRYDHGTFFPMGDEGASSQIGRAAGTGFTVNVAWNGPRMGDADYLAAWHRLVLPIAYEFNPELVLVSAGFDAARGDPLGGCQVSPEGYAHLTHLLMGLASGRIILILEGGYNLTSISESMAACTRSLLGDPPPLLTLPRPPLSGALASITETIQVHRRYWRSLRVMKVEDREGPSSSKLVTKKAPQPAKPRLAERMTTREKKVLEAGMGKVTSASFGEESTPGQTNSETAVVALTQDQPSEAATGGATLAQTISEAAIGGAMLGQTTSEEAVGGATPDQTTSEETVGGAILDQTTSEDAVGGATLGQTTSEEAVGGATLAQTTSEAAMEGATLDQTTSEEAPGGTELIQTPLASSTDHQTPPTSPVQGTTPQISPSTLIGSLRTLELGSESQGASESQAPGEENLLGEAAGGQDMADSMLMQGSRGLTDQAIFYAVTPLPWCPHLVAVCPIPAAGLDVTQPCGDCGTIQENWVCLSCYQVYCGRYINGHMLQHHGNSGHPLVLSYIDLSAWCYYCQAYVHHQALLDVKNIAHQNKFGEDMPHPH
# Variants of: B1
# Settings: with hdac9_mouse Hdac9, Q99N13
# hdac9_mouse Hdac9, Q99N13, sequence (Q99N13 whole entry): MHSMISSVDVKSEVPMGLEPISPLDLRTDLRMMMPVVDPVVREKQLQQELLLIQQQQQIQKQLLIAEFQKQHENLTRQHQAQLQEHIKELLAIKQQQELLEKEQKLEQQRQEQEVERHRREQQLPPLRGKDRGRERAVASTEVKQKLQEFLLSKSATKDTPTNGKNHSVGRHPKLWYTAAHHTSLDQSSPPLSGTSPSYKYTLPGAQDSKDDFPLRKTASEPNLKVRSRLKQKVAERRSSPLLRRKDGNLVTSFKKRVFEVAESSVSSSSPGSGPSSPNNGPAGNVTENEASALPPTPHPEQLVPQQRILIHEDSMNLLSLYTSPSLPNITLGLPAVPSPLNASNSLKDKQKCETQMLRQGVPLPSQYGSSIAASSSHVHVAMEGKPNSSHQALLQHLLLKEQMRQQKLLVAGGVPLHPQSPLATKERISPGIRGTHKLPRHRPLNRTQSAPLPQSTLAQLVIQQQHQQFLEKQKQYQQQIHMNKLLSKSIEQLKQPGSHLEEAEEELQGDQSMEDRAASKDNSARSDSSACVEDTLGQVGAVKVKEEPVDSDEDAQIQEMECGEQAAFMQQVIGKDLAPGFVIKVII
row,Variant,effect of a mutation on the interaction
1,H216A;H611A,disrupting interaction strength
2,H216A,decreasing interaction strength
3,H611A,decreasing interaction strength
